# B1: synthetic antigen-binding fragment sFab H3 (Fab, V domains shown)
# VH: EVQLVESGGGLVQPGGSLRLSCAASGFNISYYYIHWVRQAPGKGLEWVASIYPYYGYTSYADSVKGRFTISADTSKNTAYLQMNSLRAEDTAVYYCARGSSWYGAHAFDYWGQGTLVTVSS
# VL: DIQMTQSPSSLSASVGDRVTITCRASQSVSSAVAWYQQKPGKAPKLLIYSASSLYSGVPSRFSGSRSGTDFTLTISSLQPEDFATYYCQQGYYYAYSLITFGQGTKVEIK
# Molecular target: maltose-binding protein (MBP)-tagged mVP35 IID (Marburg virus, UniProt P35259)
# Assay: pull-down
# Chain of maltose-binding protein (MBP)-tagged mVP35 IID (P35259 200-329): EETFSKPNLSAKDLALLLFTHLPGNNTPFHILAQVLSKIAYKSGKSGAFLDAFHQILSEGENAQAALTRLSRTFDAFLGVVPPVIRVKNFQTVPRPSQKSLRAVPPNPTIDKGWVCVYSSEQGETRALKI
binder,measurement,value
B1,binding result,binds
